In patent US20040067231A1 (published 2004):
Residue numbers refer to the chain shown, from its start.

B1: antibody having both a humanized H-chain version “a” and a chimeric L-chain (antibody, V domains shown)
VH: QVQLVESGGGVVQPGRSLRLSCAASGFTFSSYGMSWVRQAPGKGLEWVATISSGGSYTYYPDSVKGRFTISRDNSKNTLYLQMNSLRAEDTAVYYCARQTTMTYFAYWGQGTLVTVSS
VL: QLVLTQSSSASFSLGASAKLTCTLSSQHSTYTIEWYQQQPLKPPKYVMDLKQDGSHSTGDGIPDRFSGSSSGADRYLSISNIQPEDEAMYICGVGDTIKEQFVYVFGGGTKVTVLG
notes: H-chain C-region is human Cγ1
B2: mouse FR1,2/human FR3,4 hybrid antibody with L-chain m/hMBC1Ldλ (antibody, V domains shown)
VH: B1 VH
VL: QLVLTQSSSASFSLGASAKLTCTLSSQHSTYTIEWYQQQPLKPPKYVMDLKQDGSHSTGDGIPDRFSGSSSGAERYLTISSLQSEDEADYICGVGDTIKEQFVYVFGGGTKLTVL
notes: H-chain from hMBC1HcDNA/pCOS1 (humanized version a, human Cγ1); L-chain C-region human λ; Expressed in COS-7 cells
B3: humanized #23-57-137-1 antibody having L-chain version “m” (antibody, V domains shown)
VH: B1 VH
VL: QLVLTQSPSASASLGASVKLTCTLSSQHSTYTIEWYQQQPEKGPRYLMDLKQDGSHSTGDGIPDRFSGSSSGAERYLTISSLQSEDEADYYCGVGDTIKEQFVYVFGGGTKLTVLG
notes: Humanized H-chain version a with human Cγ1; L-chain with human λ C-region; also called hMBC1HcDNA/pCOS1 and hMBC1Lmλ/pCOS1
B4: humanized #23-57-137-1 antibody having L-chain version “j” (antibody, V domains shown)
VH: B1 VH
VL: B3 VL with R45K
notes: Humanized H-chain version a with human Cγ1; L-chain with human λ C-region (Cλ/pUC19); also called hMBC1HcDNA/pCOS1 and hMBC1Ljλ/pCOS1
B5: human FR1/mouse FR2,3,4 hybrid antibody with L-chain hmmMBC1L(λ) (antibody, V domains shown)
VH: B1 VH
VL: B2 VL with S8P, F12A, A18V, E74D, T78S, S81N, L82I, S84P, D89M, L112V
notes: H-chain from hMBC1HcDNA/pCOS1 (humanized version a, human Cγ1); L-chain C-region human λ; Expressed in COS-7 cells; also called FR1/FR2 hybrid antibody
B6: humanized #23-57-137-1 antibody having L-chain version “q” (antibody, V domains shown)
VH: B1 VH
VL: B3 VL with R45K, Y91I
notes: Humanized H-chain version a with human Cγ1; L-chain with human λ C-region; also called humanized antibody L-chain version “q”; hMBC1HcDNA and hMBC1Lqλ
B7: humanized #23-57-137-1 antibody having L-chain version “t” (antibody, V domains shown)
VH: B1 VH
VL: B3 VL with L47V, Y91I
notes: Humanized H-chain version a with human Cγ1; L-chain with human λ C-region; also called hMBC1HcDNA/pCOS1 and hMBC1Ltλ/pCOS1
B8: humanized #23-57-137-1 antibody having L-chain version “l” (antibody, V domains shown)
VH: B1 VH
VL: B3 VL with R45K, L47V
notes: Humanized H-chain version a with human Cγ1; L-chain with human λ C-region; also called hMBC1HcDNA/pCOS1 and hMBC1Llλ/pCOS1
B9: mouse FR1,2/human FR3,4 hybrid antibody with L-chain m/hMBC1Laλ (antibody, V domains shown)
VH: B1 VH
VL: B2 VL with I91Y
notes: as for B2
B10: humanized #23-57-137-1 antibody having L-chain version “o” (antibody, V domains shown)
VH: B1 VH
VL: B3 VL with L47V
notes: Humanized H-chain version a with human Cγ1; L-chain with human λ C-region; also called hMBC1HcDNA/pCOS1 and hMBC1Loλ/pCOS1

Target: T1, human PTHrP (1-34) (human)
T1 construct: Synthetic peptide (Peninsula; Peptide Research Institute); Coated on the ELISA plate at 1 µg/ml; used in solid phase RIA for the hybridoma screening; also called parathyroid hormone related peptide (1-34)
Assay: ELISA on coated human PTHrP (1-34)
Experimental: An ELISA plate for determining antigen-binding ability was prepared as follows. Each well of a 96-well ELISA plate (Maxisorp, NUNC) was coated with 100 μl of a coating buffer containing 1 μg/ml of human PTHrP (1-34) and then blocked with 200 μl of a dilution buffer. Subsequently, each well was added with each of the serial dilutions of the COS-7 cell culture supernatant in which each of the hybrid antibodies and humanized antibodies was expressed, or added with each of the serial dilutions of each of the hybrid antibodies and humanized antibodies in a purified form. The plate was incubated at room temperature and washed with PBS-Tween 20. Subsequently, each well was added with 100 μl of alkaline phosphatase-conjugated goat anti-human IgG antibody (TAGO). The plate was incubated at room temperature and washed with PBS-Tween 20. Subsequently, each well was added with 1 mg/ml of a substrate solution (“Sigma 104”, p-nitrophenylphosphoric acid, SIGMA). The solution was measured on its absorbance at 405 nm using Microplate Reader (Bio Rad).

Binding result, binds:
B1, B2, B3, B4, B5, B6, B7, B8, B9, B10
